“And” between values parts separate entries of the source, which are not always exact repeats. Equal values may be shown once.
What was measured:
wild-type FVIIa (human) [1] = target: wild-type FVIIa (human)
wild-type FVIIa (human) [2] = target: wild-type FVIIa (human); remark: listed apart in the source
[3] = target: A122N/G124S-FVIIa (human)
[4] = target: A122N/G124S/A175S/Q286R/M298Q-FVIIa (human)
[5] = target: Gla swap FIX/A122N/G124S/A175S/S222A/Q286R-FVIIa (human)
[6] = target: Gla swap FIX/Q286R/M298Q-FVIIa (human)
[7] = target: Gla swap FIX/S222A/Q286R/H373F-FVIIa (human)
[8] = target: Gla swap FIX/S222A/Q286R/M298Q-FVIIa (human)
[9] = target: Gla swap FIX/S52A/S60A/Q286R/M298Q-FVIIa (human)
[10] = target: Gla swap FIX/T128N/P129A/A175S/S222A/Q286R-FVIIa (human)
[11] = target: Gla swapFIX/Q366V-FVIIa (human)
[12] = target: K109N/A175S-FVIIa (human)
[13] = target: M298Q/Q366N/H373F-FVIIa (human)
[14] = target: Q286R/H373F-FVIIa (human)
[15] = target: Q286R/M298Q-FVIIa (human)
[16] = target: S222A/H257A/Q286R/M298Q-FVIIa (human)
[17] = target: S222A/T239V-FVIIa (human)
[18] = target: S222A/T239V/H257A/Q286R/M298Q-FVIIa (human)
[19] = target: S52A/S60A/Q286R-FVIIa (human)
[20] = target: T128N/P129A-FVIIa (human)
[21] = target: T128N/P129A/A175S/Q286R/M298Q/H373F-FVIIa (human)
[22] = target: T128N/P129A/M298Q-FVIIa (human)
[23] = target: T128N/P129A/Q286R-FVIIa (human)
[24] = target: T128N/P129A/Q286R/M298Q/H373F-FVIIa (human)
[25] = target: T128N/P129A/Q286R/M298Q/Q366N-FVIIa (human)
[26] = target: T128N/P129A/S222A/H257A/Q286R/M298Q-FVIIa (human)
[27] = target: T128N/P129A/T239I/Q286R/M298Q-FVIIa (human)
[28] = target: T239I/Q286R-FVIIa (human)
[29] = target: T239I/Q286R/M298Q-FVIIa (human)
[30] = target: T239V/M298Q/H373F-FVIIa (human)
[31] = target: T239V/Q286R-FVIIa (human)
[32] = target: {Gla swap FIX/K43I}/T128N/P129A/Q286R/M298Q/Q366N-FVIIa (human)
[33] = target: {Gla swap FIX/M19K/E40L/K43I/Q44S}/Q286R/M298Q-FVIIa (human)

Sequence of antithrombin III (P01008 33-464): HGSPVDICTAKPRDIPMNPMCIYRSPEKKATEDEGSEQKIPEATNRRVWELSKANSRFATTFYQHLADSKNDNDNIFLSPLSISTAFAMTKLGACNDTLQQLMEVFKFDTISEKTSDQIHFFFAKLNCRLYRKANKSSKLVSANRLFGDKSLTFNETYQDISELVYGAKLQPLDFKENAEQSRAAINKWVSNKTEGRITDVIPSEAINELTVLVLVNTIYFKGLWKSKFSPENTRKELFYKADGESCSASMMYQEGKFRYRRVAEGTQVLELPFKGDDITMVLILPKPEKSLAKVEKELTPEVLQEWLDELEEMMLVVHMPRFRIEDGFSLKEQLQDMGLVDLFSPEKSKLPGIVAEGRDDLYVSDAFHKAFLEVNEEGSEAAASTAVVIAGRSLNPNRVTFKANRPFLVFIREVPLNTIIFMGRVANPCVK

antithrombin III
K0.5, TF-dependent, FVIIa from 293-F cells (wild-type FVIIa (human) [1]): 72.3 nM | K0.5, TF-dependent, FVIIa from BHK-21 cells (wild-type FVIIa (human) [1]): 56 nM | K0.5 mut/K0.5 wt, TF-dependent, 293-F cells (wild-type FVIIa (human) [1]): 1 | K0.5 mut/K0.5 wt, TF-dependent, BHK-21 cells (wild-type FVIIa (human) [1]): 1 | K0.5, TF-independent, FVIIa from 293-F cells (wild-type FVIIa (human) [2]): 2260 nM | K0.5 mut/K0.5 wt, TF-independent, 293-F cells (wild-type FVIIa (human) [2]): 1 | K0.5 mut/K0.5 wt, TF-independent, BHK-21 cells (wild-type FVIIa (human) [2]): 1 | K0.5 [3]: 372 nM | K0.5 [4]: 1950 nM | K0.5 [5]: 5.52 µM | K0.5 [6]: 282 nM and 238 nM | K0.5 [7]: 587 nM | K0.5 [8]: 266 nM | K0.5 [9]: 254 nM | K0.5 [10]: 6.49 µM | K0.5 [11]: 108 nM | K0.5 [12]: 2030 nM | K0.5 [13]: 90.8 nM | K0.5 (Q286R-FVIIa (human)): 1090 nM | K0.5 [14]: 621 nM | K0.5 [15]: 299 nM and 287 nM and 395 nM | K0.5 (S222A-FVIIa (human)): 384 nM | K0.5 [16]: 314 nM | K0.5 [17]: 967 nM | K0.5 [18]: 469 nM | K0.5 [19]: 1320 nM | K0.5 [20]: 465 nM | K0.5 [21]: 1130 nM | K0.5 [22]: 144 nM | K0.5 [23]: 1650 nM and 1740 nM | K0.5 [24]: 183 nM | K0.5 [25]: 346 nM | K0.5 [26]: 653 nM and 328 nM | K0.5 [27]: 917 nM | K0.5 [28]: 5.82 µM | K0.5 [29]: 1610 nM | K0.5 [30]: 46.6 nM | K0.5 [31]: 1790 nM | K0.5 [32]: 319 nM | K0.5 [33]: 339 nM
